Changes are numbered by the printed parent chain.

The chains are these.
T1: human IL-11 (AAH12506.1, Pro22-Leu199) (human, UniProt P20809 22-199)
T1 construct: The range Pro22-Leu199 counts on AAH12506.1; The Octet runs say only 'human IL-11'; also called hIL-11
T1 chain: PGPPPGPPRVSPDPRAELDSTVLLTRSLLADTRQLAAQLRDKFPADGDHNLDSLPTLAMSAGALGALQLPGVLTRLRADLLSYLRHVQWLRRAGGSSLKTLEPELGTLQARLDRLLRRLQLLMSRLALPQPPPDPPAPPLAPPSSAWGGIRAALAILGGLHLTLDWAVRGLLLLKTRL

T2: mIL11
T2 construct: also called murine IL-11 (NP_032376.1, Pro22-Leu199)
T2 cytokine chain: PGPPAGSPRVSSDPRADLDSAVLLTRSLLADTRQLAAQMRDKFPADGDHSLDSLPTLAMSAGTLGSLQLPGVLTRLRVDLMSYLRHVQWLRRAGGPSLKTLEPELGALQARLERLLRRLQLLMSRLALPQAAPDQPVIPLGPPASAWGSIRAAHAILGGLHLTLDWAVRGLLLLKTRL

T3: human IL-11Rα, full length, stably expressed on STAT3-Luc HEK293 cells (human, UniProt Q14626 23-422)
T3 sequence (looked up): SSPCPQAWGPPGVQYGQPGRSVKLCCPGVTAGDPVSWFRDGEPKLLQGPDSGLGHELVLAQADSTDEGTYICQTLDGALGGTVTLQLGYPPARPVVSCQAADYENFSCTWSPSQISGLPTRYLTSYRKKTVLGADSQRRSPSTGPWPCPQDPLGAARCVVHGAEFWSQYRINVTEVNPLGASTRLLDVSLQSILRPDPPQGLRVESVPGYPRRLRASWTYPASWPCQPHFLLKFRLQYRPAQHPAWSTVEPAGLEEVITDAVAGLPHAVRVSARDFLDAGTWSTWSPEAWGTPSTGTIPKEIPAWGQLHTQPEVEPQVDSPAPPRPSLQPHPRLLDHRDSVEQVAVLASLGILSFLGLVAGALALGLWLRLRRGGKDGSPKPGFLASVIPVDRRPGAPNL

B1: Hy8C8 (antibody, V domains shown)
VH: DVQLVESGGGLVQPGGSRKLSCAASGFTFSSFGMHWVRQSPERGLEWVAYITSGSNTIYYADTVKGRFTISRDNPENTLFLQMTSLRSEDTAMYYCAREYYSYDEGFAYWGQGTLVTVSA
VL: EIVLTQSPTTMAASPGEKITITCSVSSSISSNYLHWYQQKPGFSPKLLIYRTSNLASGVPARFSGSGSGTSHSLTIDTMEAEDVATYYCQQGVDVPFTFGSGTKLEIKR
notes: murine hybridoma antibody
B2: IL-11 (Cat. 12225-HNCE, Sino Biological Inc.) (ligand, UniProt P20809 22-199, looked up)
chain: T1 chain with L154H
B3: Hy18A10 (antibody, V domains shown)
VH: QVQLQQPGAELVKPGASVKMSCKASGYKFITYNMDWVKQTPGQGLEWIGTIYPGNGDTSYNQKFKGKATLTADKSSSTAYMQLSSLTSEDSAVYYCARGDLYALDYWGQGTSVTVSS
VL: SIVMTQTPKFLLVSAGDRVTITCKASQSVSNDVAWYQQKPGQSPKLLIYSASNRYTGVPDRFTGSGYGTDFTFTINTVQAEDLAVYFCQHDYSSPYTFGGGTKLEIKR
notes: murine hybridoma antibody
B4: 3C6-mFc (antibody, mouse IgG1)
heavy: EVQLVQSGAEVKKPGASVKISCKASGYTFTDYNMDWVKQAPGQRLEWIGDINPHNGGPIYNQKFTGRATLTVDKSASTAYMELSSLRSEDTAVYYCARGELGHWYFDVWGQGTTVTVSSAKTTPPSVYPLAPGSAAQTNSMVTLGCLVKGYFPEPVTVTWNSGSLSSGVHTFPAVLQSDLYTLSSSVTVPSSTWPSETVTCNVAHPASSTKVDKKIVPRDCGCKPCICTVPEVSSVFIFPPKPKDVLTITLTPKVTCVVVDISKDDPEVQFSWFVDDVEVHTAQTQPREEQFNSTFRSVSELPIMHQDWLNGKEFKCRVNSAAFPAPIEKTISKTKGRPKAPQVYTIPPPKEQMAKDKVSLTCMITDFFPEDITVEWQWNGQPAENYKNTQPIMDTDGSYFVYSKLNVQKSNWEAGNTFTCSVLHEGLHNHHTEKSLSHSPGK
light: DIVLTQSPASLALSPGERATLSCRASKSVSTSGYSYIHWYQQKPGQAPRLLIYLASNLDSGVPARFSGSGSGTDFTLTISSLEEEDFATYYCQHSRDLPPTFGQGTKLEIKRTVAAPTVSIFPPSSEQLTSGGASVVCFLNNFYPKDINVKWKIDGSERQNGVLNSWTDQDSKDSTYSMSSTLTLTKDEYERHNSYTCEATHKTSTSPIVKSFNRNEC
notes: murine IgG1 constant regions; also called positive control anti-IL-11 antibody

In assay [1] the target is T1, human IL-11 (AAH12506.1, Pro22-Leu199). The assay can be described thus: BLI (Octet QKe), antibody on anti-mouse Fc probe, human IL-11 300 nM. The protocol: When the hybridoma cells were cultured to a certain number, culture supernatants were collected and purified using Protein G affinity chromatography to obtain murine hybridoma antibodies (Hy5C2, Hy8C8, Hy16B5, Hy18A10, Hy18H10, Hy23G6 and Hy29C11). The affinity of the murine antibodies purified from the hybridoma supernatants was determined using an Octet QKe System instrument from Fortebio Inc. with an anti-mouse IgG Fc Capture biosensor to capture the Fc fragments of the antibodies, for which an anti-IL-11 antibody named “3C6-mFc” recombinantly expressed was used at the same concentration as a positive control. Specifically, a hybridoma supernatant was diluted with HBS-EP+ buffer (GE), and was allowed to pass through the surface of AMC probes (Cat: 18-5088, PALL), and so the antibody in the hybridoma supernatant was captured on the surface of the probes; then, human IL-11 diluted in the HBS-EP+ buffer (300 nM) was used as a mobile phase to react with the antibody captured on the surface of the probes. Both the binding and the dissociating were conducted for 300 seconds. When the experiment was finished, data from which response values of blank controls had been deducted was fitted using a 1:1 Langmuir binding model by software, and then kinetic constants for antigen-antibody binding were calculated. Binding signals were detected on the Octet QKe System instrument with Hy5C2, Hy8C8, Hy16B5, Hy18A10, and Hy18H10.
(In BLI a coated tip is dipped into the sample, and binding shifts an interference pattern.)

The target in assay [2] is T2, mIL11. The assay can be described thus: direct ELISA, hybridoma supernatant on plate-immobilised murine IL-11, OD450. The source says:
Murine anti-IL-11 hybridoma monoclones 5C2, 8C8, 16B5, 18A10, 18H10, 23G6 and 29C11 were obtained by murine hybridoma technology. The binding activity of the supernatants of those clones to human IL-11 (AAH12506.1, Pro22-Leu199; SEQ ID NO.128) and murine IL-11 (NP_032376.1, Pro22-Leu199; SEQ ID NO.129) immobilized on the surface of ELISA plates was detected via direct ELISA.

For assay [3], the target named is T3, human IL-11Rα, full length, stably …. The assay is described as follows: cell-based or functional assay.
Assay [4] has as its target B2. The assay can be described thus: competition ELISA: IL-11Rα-His coated, IL-11 + antibody + gp130-Fc. The protocol: The activity of the recombinant murine anti-IL-11 antibodies for blocking the formation of IL-11/IL-11Rα/GP130 complex was analyzed via competition ELISA. IL-11Rα-His (NP_004503.1, Met1-Val363, C-terminus-6-His Tag) was firstly added into ELISA plates to be coated overnight. Next day, samples were prepared as follows. […] After co-incubating and washing, an HRP conjugated anti-human Fc secondary antibody was added to develop the color which was then detected.

As usually defined, the Kd is the equilibrium constant for the complex coming apart. One may read the koff as a measure of how fast the partners let go of each other. Low values mean slow dissociation, high ones fast dissociation. As a reminder, the kon is a measure of how fast the partners come together. Lower therefore signals slower complex formation. Turning to B1, in assay [1], binding was characterised by a dissociation constant (Kd) of 1.3 nM, the koff turned out to be 0.00204 s⁻¹ and the kon came to 1.51e+06 M⁻¹ s⁻¹. Moreover, in assay [2], the binding result is recorded as “binds”.

For B2, the “EC50 of IL-11 in stimulating the transcriptional expression of STAT3-luc reporter gene” value in assay [3] turned out to be 0.00011 µg/mL.

In assay [1], B3 registered a Kd of 1.09 nM, a koff of 0.00187 s⁻¹ and a kon of 1.71e+06 M⁻¹ s⁻¹. Besides, the binding result in assay [2] is “binds”.

The IC50 is the concentration that gives 50% inhibition. On to B4, for which the 50% inhibitory concentration (IC50) in assay [4] was found to be 2.1 µg/mL. In assay [1], this molecule returned a Kd of 0.712 nM, a koff of 0.000581 s⁻¹ and a kon of 816000 M⁻¹ s⁻¹.

Source of the values: patent US20250197488A1 (MABWELL SHANGHAI BIOSCIENCE, published 2025).
